The test has as its target recombinant human TGF-β1 (R&D systems) (human, UniProt P01137 279-390). The test can be described thus: cell-based or functional assay.

Starred links: 1 amine or outer side, 2 acyl side, 3 side chain; linkers in the order of their positions; H or OH if unused. Positions of bridges follow the written chain, without caps; N, C: chain ends. Non-standard residues stand in square brackets, D forms with d. KCOmeglumine = N6-(methyl-((2S,3R,4R,5R)-2,3,4,5,6-pentahydroxyhexyl)carbamoyl)-L-lysine, CN(C[C@H](O)[C@@H](O)[C@H](O)[C@H](O)CO)C(=O)NCCCC[C@H](N[*:1])C(=O)[*:2]; KCOpipzaa = N6-(4-(carboxymethyl)piperazine-1-carbonyl)-L-lysine, O=C(NCCCC[C@H](N[*:1])C(=O)[*:2])N1CCN(CC(=O)[*:3])CC1; 1Nal = N[C@@H](Cc1cccc2ccccc12)C(=O)O; Gly(NCH2CH2Ph) = O=C(O)CNCCc1ccccc1; 4Pal = N[C@@H](Cc1ccncc1)C(=O)O

Chain of recombinant human TGF-β1 (R&D systems) (P01137 279-390 limits assumed): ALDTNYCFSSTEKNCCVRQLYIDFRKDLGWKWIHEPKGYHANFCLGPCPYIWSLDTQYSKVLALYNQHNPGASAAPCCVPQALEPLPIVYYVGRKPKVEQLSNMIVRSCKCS

B1: TGFb1_024 (peptide)
peptide: {CH2CO}-F[1Nal]V[KCOmeglumine]NV[4Pal]DE[Gly(NCH2CH2Ph)]V[1Nal]YH[KCOpipzaa]CG-NH2
modifications: thioether N-16
SMILES: CC(C)[C@@H]1NC(=O)CN(CCc2ccccc2)C(=O)[C@H](CCC(=O)O)NC(=O)[C@H](CC(=O)O)NC(=O)[C@H](Cc2ccncc2)NC(=O)[C@H](C(C)C)NC(=O)[C@H](CC(N)=O)NC(=O)[C@H](CCCCNC(=O)N(C)C[C@H](O)[C@@H](O)[C@H](O)[C@H](O)CO)NC(=O)[C@H](C(C)C)NC(=O)[C@H](Cc2cccc3ccccc23)NC(=O)[C@H](Cc2ccccc2)NC(=O)CSC[C@@H](C(=O)NCC(N)=O)NC(=O)[C@H](CCCCNC(=O)N2CCN(CC(=O)O)CC2)NC(=O)[C@H](Cc2c[nH]cn2)NC(=O)[C@H](Cc2ccc(O)cc2)NC(=O)[C@H](Cc2cccc3ccccc23)NC1=O
In the case of B1, the SBE reporter % inhibition, peptide 0.062 nM amounted to 5.79%; the SBE reporter % inhibition, peptide 0.185 nM worked out at 16.6%; the SBE reporter % inhibition, peptide 0.56 nM stood at 45%; the SBE reporter % inhibition, peptide 1.7 nM is 80.2%. The SBE reporter % inhibition, peptide 5.0 nM was 95.5% and the SBE reporter % inhibition, peptide 15.0 nM amounted to 98.9%.

B2: TGFb1_023 (peptide)
peptide: {CH2CO}-F[1Nal]VVNV[4Pal]D[KCOmeglumine][Gly(NCH2CH2Ph)]V[1Nal]YH[KCOpipzaa]CG-NH2
modifications: thioether N-16
SMILES: CC(C)[C@@H]1NC(=O)CN(CCc2ccccc2)C(=O)[C@H](CCCCNC(=O)N(C)C[C@H](O)[C@@H](O)[C@H](O)[C@H](O)CO)NC(=O)[C@H](CC(=O)O)NC(=O)[C@H](Cc2ccncc2)NC(=O)[C@H](C(C)C)NC(=O)[C@H](CC(N)=O)NC(=O)[C@H](C(C)C)NC(=O)[C@H](C(C)C)NC(=O)[C@H](Cc2cccc3ccccc23)NC(=O)[C@H](Cc2ccccc2)NC(=O)CSC[C@@H](C(=O)NCC(N)=O)NC(=O)[C@H](CCCCNC(=O)N2CCN(CC(=O)O)CC2)NC(=O)[C@H](Cc2c[nH]cn2)NC(=O)[C@H](Cc2ccc(O)cc2)NC(=O)[C@H](Cc2cccc3ccccc23)NC1=O
As to B2, the SBE reporter % inhibition, peptide 0.062 nM turned out to be 8.58%; the SBE reporter % inhibition, peptide 0.185 nM was 24.4%; the SBE reporter % inhibition, peptide 0.56 nM was 49.7%; the SBE reporter % inhibition, peptide 1.7 nM was 82.3%. For the same molecule, the SBE reporter % inhibition, peptide 5.0 nM came out at 96% and the SBE reporter % inhibition, peptide 15.0 nM was determined as 99.5%.

B3: TGFb1_025 (peptide)
peptide: {CH2CO}-F[1Nal]V[KCOmeglumine]NV[4Pal]D[KCOpipzaa][Gly(NCH2CH2Ph)]V[1Nal]YH[KCOpipzaa]CG-NH2
modifications: thioether N-16
SMILES: CC(C)[C@@H]1NC(=O)CN(CCc2ccccc2)C(=O)[C@H](CCCCNC(=O)N2CCN(CC(=O)O)CC2)NC(=O)[C@H](CC(=O)O)NC(=O)[C@H](Cc2ccncc2)NC(=O)[C@H](C(C)C)NC(=O)[C@H](CC(N)=O)NC(=O)[C@H](CCCCNC(=O)N(C)C[C@H](O)[C@@H](O)[C@H](O)[C@H](O)CO)NC(=O)[C@H](C(C)C)NC(=O)[C@H](Cc2cccc3ccccc23)NC(=O)[C@H](Cc2ccccc2)NC(=O)CSC[C@@H](C(=O)NCC(N)=O)NC(=O)[C@H](CCCCNC(=O)N2CCN(CC(=O)O)CC2)NC(=O)[C@H](Cc2c[nH]cn2)NC(=O)[C@H](Cc2ccc(O)cc2)NC(=O)[C@H](Cc2cccc3ccccc23)NC1=O
For B3, the SBE reporter % inhibition, peptide 0.062 nM came to 4.81%; the SBE reporter % inhibition, peptide 0.185 nM was found to be 18.4%; the SBE reporter % inhibition, peptide 0.56 nM came out at 43.3%; the SBE reporter % inhibition, peptide 1.7 nM turned out to be 77.5%. Further, the SBE reporter % inhibition, peptide 5.0 nM was found to be 94.7% and the SBE reporter % inhibition, peptide 15.0 nM is 99.4%.

B4: TGFb1_026 (peptide)
peptide: {CH2CO}-F[1Nal]V[KCOmeglumine]NV[4Pal]D[KCOmeglumine][Gly(NCH2CH2Ph)]V[1Nal]YH[KCOpipzaa]CG-NH2
modifications: thioether N-16
SMILES: CC(C)[C@@H]1NC(=O)CN(CCc2ccccc2)C(=O)[C@H](CCCCNC(=O)N(C)C[C@H](O)[C@@H](O)[C@H](O)[C@H](O)CO)NC(=O)[C@H](CC(=O)O)NC(=O)[C@H](Cc2ccncc2)NC(=O)[C@H](C(C)C)NC(=O)[C@H](CC(N)=O)NC(=O)[C@H](CCCCNC(=O)N(C)C[C@H](O)[C@@H](O)[C@H](O)[C@H](O)CO)NC(=O)[C@H](C(C)C)NC(=O)[C@H](Cc2cccc3ccccc23)NC(=O)[C@H](Cc2ccccc2)NC(=O)CSC[C@@H](C(=O)NCC(N)=O)NC(=O)[C@H](CCCCNC(=O)N2CCN(CC(=O)O)CC2)NC(=O)[C@H](Cc2c[nH]cn2)NC(=O)[C@H](Cc2ccc(O)cc2)NC(=O)[C@H](Cc2cccc3ccccc23)NC1=O
Turning to B4, the SBE reporter % inhibition, peptide 0.062 nM is 6.85%; the SBE reporter % inhibition, peptide 0.185 nM is 17.8%; the SBE reporter % inhibition, peptide 0.56 nM amounted to 41.4%; the SBE reporter % inhibition, peptide 1.7 nM was 74.3%. Further, the SBE reporter % inhibition, peptide 5.0 nM turned out to be 93.4% and the SBE reporter % inhibition, peptide 15.0 nM was determined as 98%.

B5: TGFb1_019 (peptide)
peptide: {CH2CO}-F[1Nal]V[KCOpipzaa]NV[4Pal]DD[Gly(NCH2CH2Ph)]V[1Nal]YH[KCOpipzaa]CG-NH2
modifications: thioether N-16
SMILES: CC(C)[C@@H]1NC(=O)CN(CCc2ccccc2)C(=O)[C@H](CC(=O)O)NC(=O)[C@H](CC(=O)O)NC(=O)[C@H](Cc2ccncc2)NC(=O)[C@H](C(C)C)NC(=O)[C@H](CC(N)=O)NC(=O)[C@H](CCCCNC(=O)N2CCN(CC(=O)O)CC2)NC(=O)[C@H](C(C)C)NC(=O)[C@H](Cc2cccc3ccccc23)NC(=O)[C@H](Cc2ccccc2)NC(=O)CSC[C@@H](C(=O)NCC(N)=O)NC(=O)[C@H](CCCCNC(=O)N2CCN(CC(=O)O)CC2)NC(=O)[C@H](Cc2c[nH]cn2)NC(=O)[C@H](Cc2ccc(O)cc2)NC(=O)[C@H](Cc2cccc3ccccc23)NC1=O
Regarding B5, the SBE reporter % inhibition, peptide 0.062 nM is 5.21%; the SBE reporter % inhibition, peptide 0.185 nM came out at 11.3%; the SBE reporter % inhibition, peptide 0.56 nM came to 30.2%; the SBE reporter % inhibition, peptide 1.7 nM came out at 61.6%. The SBE reporter % inhibition, peptide 5.0 nM turned out to be 87.8% and the SBE reporter % inhibition, peptide 15.0 nM turned out to be 96.4%.

B6: TGFb1_030 (peptide)
peptide: {CH2CO}-F[1Nal]V[KCOmeglumine]NV[4Pal]D[KCOmeglumine][Gly(NCH2CH2Ph)]V[1Nal]YHECG-NH2
modifications: thioether N-16
SMILES: CC(C)[C@@H]1NC(=O)CN(CCc2ccccc2)C(=O)[C@H](CCCCNC(=O)N(C)C[C@H](O)[C@@H](O)[C@H](O)[C@H](O)CO)NC(=O)[C@H](CC(=O)O)NC(=O)[C@H](Cc2ccncc2)NC(=O)[C@H](C(C)C)NC(=O)[C@H](CC(N)=O)NC(=O)[C@H](CCCCNC(=O)N(C)C[C@H](O)[C@@H](O)[C@H](O)[C@H](O)CO)NC(=O)[C@H](C(C)C)NC(=O)[C@H](Cc2cccc3ccccc23)NC(=O)[C@H](Cc2ccccc2)NC(=O)CSC[C@@H](C(=O)NCC(N)=O)NC(=O)[C@H](CCC(=O)O)NC(=O)[C@H](Cc2c[nH]cn2)NC(=O)[C@H](Cc2ccc(O)cc2)NC(=O)[C@H](Cc2cccc3ccccc23)NC1=O
B6: the SBE reporter % inhibition, peptide 0.062 nM came to 10.9%; the SBE reporter % inhibition, peptide 0.185 nM came to 14.3%; the SBE reporter % inhibition, peptide 0.56 nM is 29.9%; the SBE reporter % inhibition, peptide 1.7 nM was 52.5%. Besides, the SBE reporter % inhibition, peptide 5.0 nM stood at 80.8% and the SBE reporter % inhibition, peptide 15.0 nM turned out to be 95.2%.

The record behind these values is patent US20250034212A1, “PEPTIDE” (PEPTIDREAM INC., priority 2021, published 2025).
